The values that follow come from patent US8110660B2, “Soluble ENPP4 protein” (Ono Pharmaceutical Co., Ltd., priority 2004, dated 2012).

Holding throughout (type): biochemical
Assay [1] is described as follows: Bivalent cation requirement of soluble type ENPP proteins (PDE/PME activity). Conditions: MgCl2 and CaCl2 1 mM vs no additive vs EDTA 1 mM, pNP-PP, FIG. 9. The method, then: (§1) 0.2 μg of the purified soluble type ENPP4 protein was mixed in 90 μL of assay buffer (20 mM HEPES, 140 mM NaCl, 5 mM KCl, 10 mM Glucose, pH 9.6), 10 μL of 10 mM pNP-PP, and (1) 1 mM final concentration of MgCl2 and CaCl2, (2) no additive, or (3) 1 mM final concentration of EDTA, and then was kept at 37° C. for 90 min and then, absorption of light of 405 nm was measured and thereby, the increase or decrease of the PDE/PME activity by removing bivalent cations was examined.
as §1, with “ENPP5” for “ENPP4”, “examined. […] It has been thought that a certain cation except for calcium and magnesium ions is bonded to the purified soluble type ENPP5 protein because the activity decreases in the EDTA-adding sample and increases in the no-additive sample. […]” for “examined.”

Assay [2] in a line: PDE/PME activity of soluble type ENPP proteins (pNP-PP or bis-pNPP degradation). Conditions: 0.2 μg protein, 1 mM pNP-PP (ENPP6 also bis-pNPP), pH 9.6, 37° C., 90 min, FIG. 8. The method, then:
0.2 μg of the purified soluble type ENPP4 protein was mixed in 90 μL of assay buffer (20 mM HEPES, 140 mM NaCl, 5 mM KCl, 1 mM CaCl2, 1 mM MgCl2, 10 mM Glucose, pH 9.6) and 10 μL of 10 mM p-nitrophenyl phenylphosphonate (pNP-PP, manufactured by Sigma Inc.), and was kept at 37° C. for 90 min and then, absorption of light of 405 nm was measured and thereby, the amount of P-nitrophenol was quantitatively determined and, whether the PDE/PME activity existed or not was examined.
0.2 μg of the purified soluble type ENPP5 protein was mixed in 90 μL of assay buffer (20 mM HEPES, 140 mM NaCl, 5 mM KCl, 1 mM CaCl2, 1 mM MgCl2, 10 mM Glucose, pH 9.6) and 10 μL of 10 mM pNP-PP, and was kept at 37° C. for 90 min and then, absorption of light of 405 nm was measured and thereby, the amount of p-nitrophenol was quantitatively determined and, whether the PDE/PME activity existed or not was examined.
0.2 μg of the purified soluble type ENPP6 protein was mixed in 90 μL of assay buffer (20 mM HEPES, 140 mM NaCl, 5 mM KCl, 1 mM CaCl2, 1 mM MgCl2, 10 mM Glucose, pH 9.6) and 10 μL of 10 mM pNP-PP or bis-(p-nitrophenyl)phosphate (bis-pNPP), and was kept at 37° C. for 90 min and then, absorption of light of 405 nm was measured and thereby, the amount of p-nitrophenol was quantitatively determined and, whether the PDE/PME activity existed or not was examined.

Assay [3] is described as follows: NPP/PDE activity of soluble type ENPP proteins (pNP-TMP degradation, 405 nm). Conditions: 1 mM pNP-TMP, pH 9.6, 37° C., 2 hours, absorption at 405 nm. As to the method:
400 mL of the culture supernatant of the cells expressing the soluble type human ENPP4 protein was concentrated at 8 times by using Amicon Ultra-15 (fraction molecular weight 10,000, manufactured by Millipore Inc.). The His-Tag-added protein was affinity-purified by using AKTAexplorer 10S (manufactured by Amersham Biosciences Inc.) and His-Trap column (manufactured by Amersham Biosciences Inc.). Samples in the respective purification steps were subjected to SDS-PAGE according to a predetermined method and then the protein was stained by using Simply-Blue-Stain (manufactured by Invitrogen Inc.). […] 40 μL of each of the respective purification steps and purified soluble type human ENPP4-FLAG-His proteins was mixed with 50 μL of assay buffer (20 mM HEPES, 140 mM NaCl, 5 mM KCl, 1 mM CaCl2, 1 mM MgCl2, 10 mM Glucose, pH 9.6, the method of Voltmeter P. et al., Eur. J. Biochem. 270 (2003) 2971-78 was improved) and 10 μL of 10 mM p-nitrophenyl-Thymidine monophosphate (pNP-TMP, Sigma Inc.), and the mixture was kept at 37° C. for 2 hours and then, absorption of light of 405 nm was measured and thereby, p-nitorphenol, which was a degradation product, was measured and, whether the Nucleotide Pyrophosphatase (NPP)/Phospho-Diesterase (PDE) activity existed or not was examined. […]

B1: soluble type ENPP4 protein: extracellular region of human ENPP4 with FLAG tag and 6×His tag at the C terminal, expressed in HEK293T cells, purified (protein, UniProt Q9Y6X5 16-407, looked up)
extracellular domain: FRSDSSSSLPPKLLLVSFDGFRADYLKNYEFPHLQNFIKEGVLVEHVKNVFITKTFPNHYSIVTGLYEESHGIVANSMYDAVTKKHFSDSNDKDPFWWNEAVPIWVTNQLQENRSSAAAMWPGTDVPIHDTISSYFMNYNSSVSFEERLNNITMWLNNSNPPVTFATLYWEEPDASGHKYGPEDKENMSRVLKKIDDLIGDLVQRLKMLGLWENLNVIITSDHGMTQCSQDRLINLDSCIDHSYYTLIDLSPVAAILPKINRTEVYNKLKNCSPHMNVYLKEDIPNRFYYQHNDRIQPIILVADEGWTIVLNESSQKLGDHGYDNSLPSMHPFLAAHGPAFHKGYKHSTINIVDIYPMMCHILGLKPHPNNGTFGHTKCLLVDQWCINLPEA
modifications: extracellular domain C-terminal FLAG and 6xHis tags
notes: extracellular region of human ENPP4 with FLAG tag and 6×His tag at the C terminal, expressed in HEK293T cells, purified
Consider B1, for which the bivalent cation requirement result in assay [1] is given as “does not require bivalent cations”. For the same molecule, the PDE/PME activity result in assay [2] was “has the PDE/PME activity”. For the same molecule, the NPP/PDE activity result in assay [3] is given as “NPP/PDE activity was detected”.
